B1: FLT-1 Domain 4 Construct 2 (residues 330-440), His-tagged (receptor)
chain: DKAFITVKHRKQQVLETVAGKRSYRLSMKVKAFPSPEVVWLKDGLPATEKSARYLTRGYSLIIKDVTEEDAGNYTILLSIKQSNVFKNLTATLIVNVKPQIYEKAVSSFPD
notes: not shown: histidine tag from the E. coli expression vector
B2: FLT-1 Domain 4 Construct 1 (residues 330-429), His-tagged (receptor)
chain: DKAFITVKHRKQQVLETVAGKRSYRLSMKVKAFPSPEVVWLKDGLPATEKSARYLTRGYSLIIKDVTEEDAGNYTILLSIKQSNVFKNLTATLIVNVKPQ
notes: as for B1
B3: FLT-1 Domain 4 Construct 0 (residues 338-440), His-tagged (receptor)
chain: HRKQQVLETVAGKRSYRLSMKVKAFPSPEVVWLKDGLPATEKSARYLTRGYSLIIKDVTEEDAGNYTILLSIKQSNVFKNLTATLIVNVKPQIYEKAVSSFPD
notes: probably a printing error; also called sFLT-1 Dom; 4 (construct 0); His-Tagged Domain 4 (Construct 0); not shown: histidine tag from the E. coli expression vector

Target: T1, soluble FLT-1 (sFLT-1) (Homo sapiens, UniProt P17948-2 27-687, limits assumed)
T1 construct: the whole FLT-1 entry is named
Test: BIAcore; 50 nM sFLT-1 pre-incubated overnight with 50 µg/ml construct, passed over immobilised mAb 2B2
Procedure: Binding of Domain 4 on sFLT-1 is determined using Biomolecular Interaction Analysis (Biacore). (Fisher R. J. and Fivash, M. (1994) Curr. Opin. Biotech. 5, 389-395).
A monoclonal antibody (2B2) specific to Domains 1 to 3 of sFLT-1, but not Domain 4, was immobilized on the sensor chip at a concentration of 30 μg/ml in 10 mM NaAc, pH 5. 50 μg/ml of the four Domain 4 constructs in 20 mM Tris-HCl, pH 7.4 were individually pre-incubated overnight at 4° C. with 50 nM sFLT-1 in HEPES buffer (O.O1M Hepes,pH 7.4, 0.15M NaCl, 3 mM EDTA, 0.005% polysorbate 20 (v/v)). Thereafter the pre-incubated suspensions were passed across the immobilized monoclonal antibody and binding monitored by mass sensitive detection, measured in response units (RU). […] A further control was also run whereby the four Domain 4 constructs, which have not been pre-incubated with sFLT-1, were passed over the immobilized monoclonal antibody. After each run the sensor chip was regenerated in 10 mM Glycine pH 1.75 buffer ready for the next experiment.

T1 sequence (P17948 other isoform, or with tags, fused parts or gaps limits assumed): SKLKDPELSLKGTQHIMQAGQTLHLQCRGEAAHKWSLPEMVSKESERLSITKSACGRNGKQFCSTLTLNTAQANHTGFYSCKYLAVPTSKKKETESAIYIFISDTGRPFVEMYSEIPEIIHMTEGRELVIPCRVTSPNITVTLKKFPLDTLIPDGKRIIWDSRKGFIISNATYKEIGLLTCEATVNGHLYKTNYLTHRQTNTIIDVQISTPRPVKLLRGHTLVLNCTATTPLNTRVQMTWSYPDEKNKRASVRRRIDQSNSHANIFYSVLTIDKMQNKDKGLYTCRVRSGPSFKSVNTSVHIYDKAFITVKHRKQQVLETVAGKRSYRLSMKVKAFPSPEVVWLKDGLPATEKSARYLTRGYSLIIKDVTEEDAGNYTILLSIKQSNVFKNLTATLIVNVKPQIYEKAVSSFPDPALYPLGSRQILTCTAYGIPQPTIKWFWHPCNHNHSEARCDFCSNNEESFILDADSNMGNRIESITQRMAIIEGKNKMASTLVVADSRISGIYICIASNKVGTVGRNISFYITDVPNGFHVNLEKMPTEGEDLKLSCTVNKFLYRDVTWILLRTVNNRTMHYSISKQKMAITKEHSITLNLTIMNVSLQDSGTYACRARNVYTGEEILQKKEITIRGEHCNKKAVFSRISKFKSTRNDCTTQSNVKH

Binder | % inhibition of sFLT-1
B1 | 73.3%
B2 | 64.7%
B3 | 5.85%

Reference: patent US20030207391A1 (published 2003)
